Data as given in article PMC10914587.

Assays:
[1] = target: T1, sclerostin loop 3-6 (sites 127-128 mutated) (UniProt Q9BQB4 135-169, G151A;E152A); assay: BLI
T1 chain: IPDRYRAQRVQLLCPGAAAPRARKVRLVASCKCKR

[2] = target: sclerostin (UniProt Q9BQB4 24-213); assay: BLI
sclerostin, sequence (Q9BQB4 24-213): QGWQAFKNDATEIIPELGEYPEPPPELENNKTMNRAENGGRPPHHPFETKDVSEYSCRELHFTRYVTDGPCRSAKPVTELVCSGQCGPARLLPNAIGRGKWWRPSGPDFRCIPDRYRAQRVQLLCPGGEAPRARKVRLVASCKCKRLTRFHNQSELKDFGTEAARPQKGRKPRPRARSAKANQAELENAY

CGGGGTGTGGGTTCGTCGTTAGCTTGATTTGGCAGCTGCC (ssDNA) [Aptscl56] was tested, and the binding result [1] was “no binding” and the Kd [2] was 68.6 nM.
